System: MS2 coat protein
Assay: apparent KD of MS2 coat protein; designed switch direction (-1 OFF switch, 1 ON switch): -1; higher = weaker reporter binding
Summary of the method: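 Stalled E. coli RNA polymerase transcribed designed RNA switches on Illumina chips, which were then titrated with SNAP-549-labelled MS2 coat protein, doubling from 0.7 or 1.5 nM to 3 µM. Steps lasted from 0.8–1.5 h at the lowest concentration to 10–20 min at the highest. The apparent KD is each design's median over clusters of curve-fitted normalised fluorescence.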

[1] = input ligand: microRNA oligo, concentration not stated

Sequence	apparent KD of MS2 coat protein (input ligand: FMN 200 uM) [nM]	apparent KD of MS2 coat protein [1] [nM]	apparent KD of MS2 coat protein (input ligand: none) [nM]
UUAAAUCAUGUAGGAUAUGCGUGGCGAAGCUAUGCAGAAGGACAUGAGGAUCACCCAUGUUCUAGCGUCUGAGUACAGAUGCAA [Mat - Exclusion NG 1 - Mod of JL - D2] (Eterna round: R96, puzzle: Exclusion NG 1)	244	17.4	18.9
UUAAAUCAUGUAGGAUAUGCGUGGCGAAGCUAUGCAGAAGGACAUGAGGAUCACCCAUGUUCUAGCGUCUGCGUACAGAUGCGG [JL JSci mod] (Eterna round: R96, puzzle: Exclusion NG 1)	334	22	29.8
UUAAAUCAUGUAGGAUAUGCUUUGCGAAGCGAGGCAGAAGGACAUGAGGAUCACCCAUGUGCUAGCGUCCGCGUACGGAUGCAA [Mat - Exclusion NG 1 - Mod of JL - D61] (Eterna round: R96, puzzle: Exclusion NG 1)	166	57.3	83
UUAACAUGCUGGUGAUCAUACAUGAGGAUCACCCAUGUAACAAGCUUUUUGUUCGUCUUAAUUUAAUUGAUUACUAG [Stov1/8-B1] (Eterna round: R97, puzzle: Sensor, turn-off variant 1)	188		248
UUAACAUUCGUCAGGAUAUUUGCUCGGUGUACGAGAGAGAAGGGACAUGAGGAUCACCCAUGUGACUUCAGCAA [Eternabot (Original) Solution 2] (Eterna round: R97, puzzle: Brourd's mod of Exclusion 4)	19.6		15.1
UUAAGGGACUGAGGAUAUACAUGAAUUAUGUUUGUAGAAGGCAGAUUGUUAGUUUAUUCACUAUACAUGAGGAUCACCCAUGUU [JR_ExcNG1_Sub019] (Eterna round: R96, puzzle: Exclusion NG 1)		17.1	
UUAAUUAAUUAACGCAGCAAGAUCACAUGAGGAUCACCCAUGUAGGAUAUCAGCUCGAUUAGAGCUGAGAAGGACAUAGCUGCG [ExNG3/1-A1] (Eterna round: R96, puzzle: Exclusion NG 3)	103	18.2	17.5
UUACCCUGAGGAUAUCCACCGUGAUACAUGAGGAUCACCCAUGUUAAUGCCUGAGUUCCCGGAGAAGGCAGAUUCC [Megrez] (Eterna round: R97, puzzle: Exclusion 5)	35.3		33.4
UUACGAUUGCUAGGAUAUCCACGAAUAGCUCCGGGAGAAGGAGCUCUCGUACAUGAGGAUCACCCAUGUCAGGGUGUCCAAUUU [Onraedin] (Eterna round: R96, puzzle: Exclusion NG 1)	38.1	21.4	40.7
UUACUACAUGUAGGAUAUGCGUGGCGAAGCUAUGCAGAAGGACAUGAGGAUCACCCAUGUUUUAGCGUCUGCGUACAGAUGCGU [JL ENG1 1.47] (Eterna round: R96, puzzle: Exclusion NG 1)		14.8	
UUAGAUUAUUGAGGAUAUGGUUAUUUUUAUUAACCAGAAGGCAAACUCAACAUGAGGAUCACCCAUGUAUAAAGGGUAUUAGUU [JR_ExcNG1_Sub097] (Eterna round: R96, puzzle: Exclusion NG 1)		71.9	
UUAGAUUGAGGAUAUACAUGAGGAUCACCCAUGUCGAUACCAAUGGUGUUGACCGUCAGUAGAAGGCGAAUUGA [Eternabot (L1) Solution 87] (Eterna round: R97, puzzle: Exclusion 3)	163		123
UUAUACAAGCAAAGAUCCCACAUGAGGAUCACCCAUGUGCUCGUCUUAUAAGGAUCUGUGACGAAAGUCACGGAUCC [Mat - Sensor, turn-off var - Eli Mod - D101] (Eterna round: R97, puzzle: Sensor, turn-off variant 1)	43.3		35.7

— the supplement of paper PMC9170038
